Reference: article PMC4033627 (Biochemistry, 2014)

Legend:
[1] = target: ubiquitin (from a pRSETA plasmid, for isothermal titration calorimetry) (UniProt P0CG48 1-76); experiment: ITC
[2] = target: human ubiquitin (from pGEX-6P1) (human, UniProt P0CG48 1-76); experiment: crystal structure

B1: catalytic domain of Sst2 (residues 245–435), Sst2^cat (domain or fragment)
chain: AGTFKIHAYTEGGKPLRTIYLPKLLKKVFLDVVKPNTKKNLETCGILCGKLRQNAFFITHLVIPLQEATSDTCGTTDEASLFEFQDKHNLLTLGWIHTHPTQTCFMSSVDLHTHCSYQLMLPEAIAIVMAPSKNTSGIFRLLDPEGLQTIVKCRKPGLFHPHEGKVYTMVAQPGHVREINSKLQVVDLRVK
**Q.** For B1, which Kd [1] is on record?
**A.** The Kd was 10.2 ± 0.6 µM.

B2: Sst2^catE286A (Glu286Ala mutant of the catalytic domain of Sst2) (domain or fragment)
chain: AGTFKIHAYTEGGKPLRTIYLPKLLKKVFLDVVKPNTKKNLATCGILCGKLRQNAFFITHLVIPLQEATSDTCGTTDEASLFEFQDKHNLLTLGWIHTHPTQTCFMSSVDLHTHCSYQLMLPEAIAIVMAPSKNTSGIFRLLDPEGLQTIVKCRKPGLFHPHEGKVYTMVAQPGHVREINSKLQVVDLRVK
**Q.** B2 was tested. Which Kd [1] did it give?
**A.** Its Kd is 3 ± 0.56 µM.

B3: Sst2^catD354A (Asp354Ala mutant of the catalytic domain of Sst2) (domain or fragment)
chain: AGTFKIHAYTEGGKPLRTIYLPKLLKKVFLDVVKPNTKKNLETCGILCGKLRQNAFFITHLVIPLQEATSDTCGTTDEASLFEFQDKHNLLTLGWIHTHPTQTCFMSSVALHTHCSYQLMLPEAIAIVMAPSKNTSGIFRLLDPEGLQTIVKCRKPGLFHPHEGKVYTMVAQPGHVREINSKLQVVDLRVK
**Q.** Does B3 bind [2]?
**A.** Result: binds
